Results on 3 molecules are retold here after US20200247894A1 (Regeneron, published 2020).

Usually Kd stands for the equilibrium constant for the complex coming apart. What is called koff is the rate constant with which the complex falls apart. High values mean fast dissociation, low ones slow dissociation. The kon is the rate constant with which the complex forms. High values mean faster complex formation, low ones slower complex formation. One may read the t½ as how long it takes for the measured level to halve.

The target of assay [1] is T1, D2 domain of human IL2Rγ extracellular domain expressed with a C-terminal myc-myc-hexahistidine tag (human).
T1 construct: also called human IL2Rγ domain 2
T1 chain: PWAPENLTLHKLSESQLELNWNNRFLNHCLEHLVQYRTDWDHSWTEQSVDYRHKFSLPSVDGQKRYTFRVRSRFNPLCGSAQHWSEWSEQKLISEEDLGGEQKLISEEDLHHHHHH
The experiment in a line: SPR, mAb captured on anti-hFc, 37 C. An outline of the steps:
(§1)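 Anti-IL2Rγ antibodies held on an anti-human Fc capture surface with receptor binding to them.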
(Surface plasmon resonance follows binding to a sensor surface in real time, without labels.)

The target of assay [2] is T2, D1 domain of human IL-2Rγ extracellular domain expressed with a C-terminal myc-myc-hexahistidine tag (human).
T2 construct: also called human IL2Rγ domain 1
T2 chain: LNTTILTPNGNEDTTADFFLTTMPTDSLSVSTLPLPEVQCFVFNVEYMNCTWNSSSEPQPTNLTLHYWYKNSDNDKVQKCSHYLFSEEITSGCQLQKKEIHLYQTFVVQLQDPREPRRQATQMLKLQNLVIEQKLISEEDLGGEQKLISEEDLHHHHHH
The experiment in a line: SPR, mAb captured on anti-hFc, 25 C; 25 C. As for the experimental part: Equilibrium dissociation constants (KD values) for IL-2Rγ binding to purified anti-IL2Rγ monoclonal antibodies were determined using a Biacore 4000 instrument equipped with a real-time surface plasmon resonance biosensor. All binding studies were performed in 10 mM HEPES, 150 mM NaCl, 3 mM EDTA, and 0.05% v/v Surfactant Tween-20, pH 7.4 (HBS-ET) running buffer at 25° C. and 37° C. The Biacore sensor surface was first derivatized by amine coupling with a monoclonal mouse anti-human Fc antibody (GE, # BR-1008-39) to capture anti-IL2Rγ monoclonal antibodies.
The dissociation of monoclonal antibody bound IL2Rγ reagents were monitored for 8-10 minutes in HBS-ET running buffer. Kinetic association (kₐ) and dissociation (kd) rate constants were determined by fitting the real-time sensorgrams to a 1:1 binding model using Scrubber 2.0c curve fitting software. Binding dissociation equilibrium constants (KD) and dissociative half-lives (t_{1/2}) were calculated from the kinetic rate constants as: […]

For assay [3], the target named is T1, D2 domain of human IL2Rγ extracellular …. The experiment in a line: SPR, mAb captured on anti-hFc, 25 C. The essentials:
as §1

In assay [4] the target is T2, D1 domain of human IL-2Rγ extracellular …. In words: SPR, mAb captured on anti-hFc, 37 C. An outline of the steps: (§2)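 KD and dissociative half-life come from rate constants obtained by 1:1 binding-model fits of real-time sensorgrams. Antibodies sit on an anti-human Fc capture surface, with HBS-ET (pH 7.4) as running buffer and an 8-10 minute dissociation phase.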
For assay [5], the target named is T3, human IL2Rγ (endogenously expressed on cells) (human, UniProt P31785 23-369).
T3 sequence (looked up): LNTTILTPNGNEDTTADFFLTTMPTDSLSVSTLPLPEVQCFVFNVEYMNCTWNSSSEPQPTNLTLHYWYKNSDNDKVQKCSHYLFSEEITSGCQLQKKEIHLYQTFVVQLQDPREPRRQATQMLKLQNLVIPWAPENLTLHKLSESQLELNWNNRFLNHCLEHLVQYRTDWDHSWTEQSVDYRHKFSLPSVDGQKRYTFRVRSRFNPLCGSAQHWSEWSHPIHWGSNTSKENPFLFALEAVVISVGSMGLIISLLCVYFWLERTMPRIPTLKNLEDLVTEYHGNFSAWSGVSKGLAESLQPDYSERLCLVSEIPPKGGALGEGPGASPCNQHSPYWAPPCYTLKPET
The experiment in a line: cell-based or functional assay.

The target of assay [6] is T3, human IL2Rγ (endogenously expressed on …). In words: cell-based or functional assay. This is another data set of the same source.
For assay [7], the target named is T2, D1 domain of human IL-2Rγ extracellular …. In words: SPR, mAb captured on anti-hFc, 25 C. The essentials: as §2
Assay [8] addresses T3, human IL2Rγ (endogenously expressed on …). In words: cell-based or functional assay. The source holds these as a separate data set.

B1: H4H12926P2 (antibody, human IgG4 S228P, kappa, V domains shown)
VH: QVQLQQSGPGLVKPSQTLSLTCAISGDSVSSNIAAWNWIRLSPSRGLEWLGRTFFRSTWFYDYSLSVKGRITINPDTSKNQFSLHLNSVTPEDAAVYYCARTGRRWSLDYWGQGTLVTVSS
VL: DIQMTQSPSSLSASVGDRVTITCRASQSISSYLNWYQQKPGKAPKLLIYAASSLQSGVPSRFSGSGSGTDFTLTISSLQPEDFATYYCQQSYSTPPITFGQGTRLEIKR
notes: human IgG4
Turning to B1, in assay [1], the “100 nM Ag Bound” value is 0 RU. In assay [2], the Kd was 195 nM, the koff worked out at 0.0273 s⁻¹, the kon was found to be 140000 M⁻¹ s⁻¹ and the t½ came to 0.4 min. In assay [3], the “100 nM Ag Bound” value was found to be 0 RU and the binding result was “no binding (tested: 100 nM)”.

B2: H4H12922P2 (antibody, human IgG4 S228P, kappa, V domains shown)
VH: QVQLVESGGGVVKPGGSLRLSCAASGFTFSNSGIHWVRQAPGKGLEWVALISYAGSNKYYADSVKGRFTISRDNSKNTLSLQMNSLRAEDTAVYYCAKEVWTGTYDSFDMWGRGTMVTVSS
VL: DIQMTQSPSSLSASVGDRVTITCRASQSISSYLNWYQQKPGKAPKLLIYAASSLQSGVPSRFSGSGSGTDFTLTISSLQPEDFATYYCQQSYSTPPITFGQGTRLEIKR
notes: human IgG4; also called REGN7256
Take B2: the “100 nM Ag Bound” value in assay [1] came to 3 RU. Further, in assay [4], the “100 nM Ag Bound” value amounted to 26 RU, the dissociation constant Kd is 4.13 nM, the off-rate (koff) is 0.00168 s⁻¹ and the kon worked out at 407000 M⁻¹ s⁻¹. The molecule further displayed a t½ in assay [4] of 7 min. Besides, in assay [3], the “100 nM Ag Bound” value was 2 RU and the binding result is “no binding (tested: 100 nM)”. Also, in assay [5], the “IC50; IL-2 30 pM; NK92/hIL7R/STAT3-luc” value was determined as 1.6e-08 M, the “IC50; IL-4 250 pM; Ramos.2G6.4C10/STAT3-luc” value is 1.3e-09 M, the “IC50; IL-7 50 pM; NK92/hIL7R/STAT3-luc” value was 2.6e-09 M and the “IC50; IL-9 20 pM; NK92/hIL7R/STAT3-luc” value was 3.1e-09 M. In assay [5], the “IC50; IL-15 60 pM; NK92/hIL7R/STAT3-luc” value is 9.3e-09 M, the “IC50; IL-21 5 pM; NK92/hIL7R/STAT3-luc” value was over 1e-07 M, the “Max Inhibition (%); IL-2 30 pM; NK92/hIL7R/STAT3-luc” value came out at 85% and the “Max Inhibition (%); IL-4 250 pM; Ramos.2G6.4C10/STAT3-luc” value turned out to be 100%. Moreover, in assay [5], the “Max Inhibition (%); IL-7 50 pM; NK92/hIL7R/STAT3-luc” value was found to be 98%, the “Max Inhibition (%); IL-9 20 pM; NK92/hIL7R/STAT3-luc” value was found to be 99%, the “Max Inhibition (%); IL-15 60 pM; NK92/hIL7R/STAT3-luc” value was found to be 91% and the “Max Inhibition (%); IL-21 5 pM; NK92/hIL7R/STAT3-luc” value was found to be 49%. In addition, the “IC50; IL-9 (2 nM)-induced STAT3 phosphorylation, in vitro differentiated human mast cells” value in assay [6] amounted to 0.416 nM. In assay [7], the “100 nM Ag Bound” value was determined as 50 RU, binding was characterised by a dissociation constant (Kd) of 3.32 nM, the off-rate constant (koff) came to 0.000839 s⁻¹ and the on-rate constant (kon) is 252000 M⁻¹ s⁻¹. This molecule had a t½ in assay [7] of 14 min. For the same molecule, in assay [8], the “IC50; IL-2 (10 nM)-induced STAT phosphorylation, human CD4+ T cells” value is 1.87 nM; the “IC50; IL-4 (50 pM)-induced STAT phosphorylation, human CD4+ T cells” value was 8.54e-10 M; the “IC50; IL-7 (1 pM)-induced STAT phosphorylation, human CD4+ T cells” value came to 5.8e-10 M; the “IC50; IL-15 (0.5 nM)-induced STAT phosphorylation, human CD4+ T cells” value amounted to 2.46 nM. For the same molecule, the “IC50; IL-21 (50 pM)-induced STAT phosphorylation, human CD4+ T cells” value in assay [8] turned out to be 2.21e-09 M.

B3: H4H12889P (antibody, human IgG4 S228P, kappa, V domains shown)
VH: EVQLVESGGGLVQPGGSLRLSCAASGFIFSSYEMHWVRQAPGKGLEWISYISSSGTTIYYADSVKGRFTISRDNAKNSLYLHMNSLRAEDTAVYYCTRARITGTFDVFDIWGQGTMVTVSS
VL: DIQMTQSPSSLSASVGDRVTITCRASQSISSYLNWYQQKPGKAPKLLIFAASNLQSGVPSRFSGSRSGTDFTLTISSLQPEDFATYYCQQNYNIPYTFGQGTKLEIKR
notes: human IgG4; also called REGN7257
With B3, the “100 nM Ag Bound” value in assay [1] is 0 RU. In assay [4], the “100 nM Ag Bound” value was 16 RU; the affinity, expressed as Kd, was 20 nM; the off-rate (koff) was found to be 0.00507 s⁻¹; the on-rate (kon) stood at 254000 M⁻¹ s⁻¹. In assay [4], this molecule had a t½ of 2.3 min. In assay [3], the “100 nM Ag Bound” value came to 0 RU and the binding result is “no binding (tested: 100 nM)”. In addition, in assay [5], the “IC50; IL-2 30 pM; NK92/hIL7R/STAT3-luc” value was found to be 2.7e-08 M, the “IC50; IL-4 250 pM; Ramos.2G6.4C10/STAT3-luc” value was 1.9e-09 M, the “IC50; IL-7 50 pM; NK92/hIL7R/STAT3-luc” value came to 3e-09 M and the “IC50; IL-9 20 pM; NK92/hIL7R/STAT3-luc” value worked out at 7.1e-09 M. Further, in assay [5], the “IC50; IL-15 60 pM; NK92/hIL7R/STAT3-luc” value was determined as 8.5e-09 M, the “IC50; IL-21 5 pM; NK92/hIL7R/STAT3-luc” value is over 1e-07 M, the “Max Inhibition (%); IL-2 30 pM; NK92/hIL7R/STAT3-luc” value is 81% and the “Max Inhibition (%); IL-4 250 pM; Ramos.2G6.4C10/STAT3-luc” value was determined as 101%. Further, in assay [5], the “Max Inhibition (%); IL-7 50 pM; NK92/hIL7R/STAT3-luc” value was 100%, the “Max Inhibition (%); IL-9 20 pM; NK92/hIL7R/STAT3-luc” value amounted to 100%, the “Max Inhibition (%); IL-15 60 pM; NK92/hIL7R/STAT3-luc” value was 92% and the “Max Inhibition (%); IL-21 5 pM; NK92/hIL7R/STAT3-luc” value is 35%. In assay [6], the “IC50; IL-9 (2 nM)-induced STAT3 phosphorylation, in vitro differentiated human mast cells” value was determined as 0.441 nM. In assay [7], the “100 nM Ag Bound” value amounted to 38 RU, the Kd is 5.34 nM, the dissociation rate constant (koff) was determined as 0.00107 s⁻¹ and the kon worked out at 200000 M⁻¹ s⁻¹. For the same molecule, the t½ in assay [7] was 11 min. For the same molecule, in assay [8], the “IC50; IL-2 (10 nM)-induced STAT phosphorylation, human CD4+ T cells” value came out at 2.06 nM; the “IC50; IL-4 (50 pM)-induced STAT phosphorylation, human CD4+ T cells” value amounted to 1.1e-09 M; the “IC50; IL-7 (1 pM)-induced STAT phosphorylation, human CD4+ T cells” value turned out to be 8.92e-10 M; the “IC50; IL-15 (0.5 nM)-induced STAT phosphorylation, human CD4+ T cells” value is 2.55 nM. Moreover, in assay [8], the “IC50; IL-21 (50 pM)-induced STAT phosphorylation, human CD4+ T cells” value is 2.28e-09 M.
